According to US8129557B2, “Phosphonic acid diester derivative and method for producing thereof” (priority 2005, dated 2012):

Substrate: Cc1cc(=O)oc2cc(NC(=O)CC[C@H](N)C(=O)O)ccc12
Test: Hydrolytic assay of E. coli GGT (Michaelis constant of substrate)
Format: biochemical, Escherichia coli K-12
Conditions: other: E. coli GGT, pH 5.5, 25° C.
Method: In the experiment, at first, Michaelis constants (Km) for 7-(γ-L-glutamylamino)-4-methylcoumarin as substrate were measured by a fluorescence method [Smith, G. D.; Ding, J. L.; Peters, T. J. Anal. Biochem. 100, 136-139 (1979)] for the hydrolytic activities of E-coli GGT and human GGT.
In the hydrolytic assay of E. coli GGT, 10 μL of a […] enzyme solution was added to a 100 mM succinic acid-sodium hydroxide buffer solution (pH 5.5) in a total volume of 1 mL containing 100 μL of 2 μM substrate aqueous solution. The product, 7-amino-4-methylcoumarin (AMC), released along with the enzyme reaction was traced continuously at 25° C. using a fluorospectrophotometer F-2000 manufactured by Hitachi Ltd. (excitation wavelength: 350 nm, emission wavelength: 440 nm). The AMC concentration was separately measured by forming a calibration curve showing the relation of the fluorescence intensity (F) and the concentration (C) using standard solutions and was calculated from the relational expression (1) of the fluorescence intensity alteration (ΔF) and concentration alteration (ΔC).
[Expression 1] ΔF/ΔC=0.11 nM^−1 (1)
The fluorescence intensity was proportional to the AMC concentration up to 2.0 μM. As a result, Km value for 7-(γ-L-glutamylamino)-4-methylcoumarin was 0.2 μM under this condition.

B1: E. coli GGT (Escherichia coli K-12) (protein)
chain 1: APPAPPVSYGVEEDVFHPVRAKQGMVASVDATATQVGVDILKEGGNAVDAAVAVGYALAVTHPQAGNLGGGGFMLIRSKNGNTTAIDFREMAPAKATRDMFLDDQGNPDSKKSLTSHLASGTPGTVAGFSLALDKYGTMPLNKVVQPAFKLARDGFIVNDALADDLKTYGSEVLPNHENSKAIFWKEGEPLKKGDTLVQANLAKSLEMIAENGPDEFYKGTIAEQIAQEMQKNGGLITKEDLAAYKAVERTPISGDYRGYQVYSMPPPSSGGIHIVQILNILENFDMKKYGFGSADAMQIMAEAEKYAYADRSEYLGDPDFVKVPWQALTNKAYAKSIADQIDINKAKPSSEIRPGKLAPYESNQ
chain 2: TTHYSVVDKDGNAVAVTYTLNTTFGTGIVAGESGILLNNQMDDFSAKPGVPNVYGLVGGDANAVGPNKRPLSSMSPTIVVKDGKTWLVTGSPGGSRIITTVLQMVVNSIDYGLNVAEATNAPRFHHQWLPDELRVEKGFSPDTLKLLEAKGQKVALKEAMGSTQSIMVGPDGELYGASDPRSVDDLTAGY
notes: was used as a purified enzyme of E-coli GGT; made in house
  Km: 0.2 µM
